Molecular target: SUMO1 (construct transfected into HSW cells in Example 8) (human) (UniProt P63165)
Assay: cell-based or functional assay

Chain of UniProt P63165 (P63165 2-97 limits assumed): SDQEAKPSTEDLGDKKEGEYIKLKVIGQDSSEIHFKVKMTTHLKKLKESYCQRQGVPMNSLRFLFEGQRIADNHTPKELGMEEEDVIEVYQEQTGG

- Aβ production (secreted Aβ levels by ELISA, HSW cells): 25 % reduction
Substance: N-terminal deleted BACE1-CTF (BACE1 C-terminal fragment, residues 456-501) (peptide)

From patent US20140186357A1
